Test results taken from paper PMC9033776 (2022).
Where no end group is shown, it is not given here.

Legend:
Test in all cases: ITC
[1] = target: Bromo1-linker(GGS)5-Bromo2 of BRD4 (UniProt O60885 54-168; O60885 351-457)
[2] = target: BRD3_(bromo2) domain (amino acids 306–416) (UniProt Q15059 306-416)
[3] = target: BRD2_(bromo1) (amino acids 73–194) (UniProt P25440 73-194)
[4] = target: BRD2_(bromo2) domain (amino acids 455–347) (UniProt P25440 347-455)
[5] = target: BRD3_(bromo1) (amino acids 24–144) (UniProt Q15059 24-144)
Chain of BRD3_(bromo1) (amino acids 24–144) (Q15059 24-144): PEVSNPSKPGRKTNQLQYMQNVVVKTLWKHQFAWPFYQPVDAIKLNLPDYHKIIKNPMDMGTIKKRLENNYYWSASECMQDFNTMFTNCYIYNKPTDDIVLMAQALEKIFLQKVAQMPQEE

Chain of BRD3_(bromo2) domain (amino acids 306–416) (Q15059 306-416): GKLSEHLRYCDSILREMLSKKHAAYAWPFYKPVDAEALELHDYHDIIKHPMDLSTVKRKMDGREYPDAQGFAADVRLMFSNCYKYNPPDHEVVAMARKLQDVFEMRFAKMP
Chain of BRD2_(bromo1) (amino acids 73–194) (P25440 73-194): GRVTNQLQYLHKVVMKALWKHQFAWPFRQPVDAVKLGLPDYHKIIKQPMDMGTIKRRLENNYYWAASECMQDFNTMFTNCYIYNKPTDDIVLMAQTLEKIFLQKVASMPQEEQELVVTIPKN
Chain of BRD2_(bromo2) domain (amino acids 455–347) (P25440 347-455): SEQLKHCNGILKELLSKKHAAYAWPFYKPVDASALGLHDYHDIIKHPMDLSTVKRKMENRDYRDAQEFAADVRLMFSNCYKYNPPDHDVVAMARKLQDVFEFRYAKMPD

Binder	Kd [1]	Kd [2]	Kd [3]	Kd [4]	Kd [5]
AGGK(Ac)AGK(Ac)DSGK(Ac)AKTKC (also: cross-linked via C-terminal cysteine) [H2A.ZK4ac7ac11ac peptides cross-linked by a C-terminal cysteine]	350 µM				
AGGK(Ac)AGK(Ac)DSGK(Ac)AKTK [tri-acetylated H2A.Z (1–15) K4acK7acK11ac peptide]		1800 µM	2600 µM	2000 µM	1500 µM
